According to patent publication JP2018153172A (dated 2018):
Ends that are not written are not given here.

T1: SEQ ID NO 127 (15-residue oligopeptide of human gp130) (human, also: linker added for immobilisation)
T1 construct: also called 配列番号127
T1 peptide: VQDLKPFTEYVFRIR

T2: SEQ ID NO 128 (15-residue oligopeptide of human gp130) (human, also: linker added for immobilisation)
T2 construct: also called 配列番号128
T2 peptide: DLKPFTEYVFRIRCM

T3: SEQ ID NO 108 (15-residue oligopeptide of human gp130) (human, also: linker added for immobilisation)
T3 construct: also called 配列番号108
T3 peptide: SIKSVIILKYNIQYR

T4: SEQ ID NO 109 (15-residue oligopeptide of human gp130) (human, also: linker added for immobilisation)
T4 construct: also called 配列番号109
T4 peptide: KSVIILKYNIQYRTK

T5: SEQ ID NO 110 (15-residue oligopeptide of human gp130) (human, also: linker added for immobilisation)
T5 construct: also called 配列番号110
T5 peptide: VIILKYNIQYRTKDA

T6: 可溶性ヒトgp130受容体 (soluble human gp130 receptor, extracellular region of SEQ ID NO 1 with six histidines) (human, UniProt P40189 23-619)
T6 construct: Secreted from CHO DG44 cells and purified on HisTrap; no cleavage site is stated; also called 可溶性ヒトgp130受容体タンパク質; ヒト可溶性gp130受容体
T6 sequence: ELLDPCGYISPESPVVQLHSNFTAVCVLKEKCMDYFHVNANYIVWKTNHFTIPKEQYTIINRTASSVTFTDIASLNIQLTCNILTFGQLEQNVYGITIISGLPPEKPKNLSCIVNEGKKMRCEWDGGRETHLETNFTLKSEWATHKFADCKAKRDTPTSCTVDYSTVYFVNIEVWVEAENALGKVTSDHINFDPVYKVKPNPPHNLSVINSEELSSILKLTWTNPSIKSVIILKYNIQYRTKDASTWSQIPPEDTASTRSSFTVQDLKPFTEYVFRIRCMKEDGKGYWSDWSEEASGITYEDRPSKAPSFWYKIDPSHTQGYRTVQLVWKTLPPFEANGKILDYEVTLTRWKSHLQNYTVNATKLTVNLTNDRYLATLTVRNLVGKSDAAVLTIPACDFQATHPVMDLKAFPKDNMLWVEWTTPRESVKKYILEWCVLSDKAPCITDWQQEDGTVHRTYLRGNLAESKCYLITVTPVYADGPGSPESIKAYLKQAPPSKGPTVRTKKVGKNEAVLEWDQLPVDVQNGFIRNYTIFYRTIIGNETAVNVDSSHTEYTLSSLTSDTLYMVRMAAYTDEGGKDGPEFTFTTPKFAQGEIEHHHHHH


Columns and labels:
[1] = biological target: T1, SEQ ID NO 127 (15-residue oligopeptide …); test: peptide microarray, antibody at 10 ug/mL, fluorescence
[2] = biological target: T2, SEQ ID NO 128 (15-residue oligopeptide …); test: as above
[3] = biological target: T3, SEQ ID NO 108 (15-residue oligopeptide …); test: as above
[4] = biological target: T4, SEQ ID NO 109 (15-residue oligopeptide …); test: as above
[5] = biological target: T5, SEQ ID NO 110 (15-residue oligopeptide …); test: as above
[6] = biological target: T6, 可溶性ヒトgp130受容体 (soluble human gp130 …); test: ELISA, immobilised soluble human gp130, recombinant antibody from COS1 cells
[7] = biological target: T6, 可溶性ヒトgp130受容体 (soluble human gp130 …); test: SPR, Biacore T200, gp130 on CM5 (4023 RU), COS1 supernatant as analyte, off-rate screening
[8] = biological target: T6, 可溶性ヒトgp130受容体 (soluble human gp130 …); test: SPR, Biacore T200, gp130 amine-coupled on CM5 (389 RU), antibody as analyte

binding result [1]	binding result [2]	binding result [3]	binding result [4]	binding result [5]	binding result [6]	binding result [7]	Binder	further results
binds	binds	binds	binds	binds	binds	–	抗体B (antibody B, mouse anti-human gp130 monoclonal antibody) (antibody, V domains shown, Mouse IgG2b, kappa; Entries are the polypeptides as encoded by the cDNA (leader probably included)) VH: EVQLQQSGAELVKPGASVKLSCTASGFNIRDTYMHWVKQRPEQGLEWIGRIDPANGNTKYDPKFQDKATMTADTSSNTAYLQLSSLTSEDTAVYYCARRGNYFYAMDYWGQGTSVTVSS VL: DIVLTQSPASLAVSLGQRATISCRASESVEYYGTSLMQWYQQKPGQPPKLLIYVASNVESGVPARFSGSGSGTDFSLNIHPVEEDDIAMYFCQQSRKVPWTFGGGTKLEIKR	–
binds	binds	binds	binds	binds	binds	–	抗体C (antibody C, mouse anti-human gp130 monoclonal antibody) (antibody, V domains shown, Mouse IgG2a, kappa; Entries are the polypeptides as encoded by the cDNA (leader probably included)) VH: EVQVVESGGDLLLPGGSLKLSCAVSGFTFNAYGMSWVRQTPDKRLELVATINSNGDSTYYPDSVKGRFTISRDNAKHTLYLQMSSLKSEDTAMYYCANFYGGFPYWGQGTLVTVSA VL: VIVLTQSHKFMSTSVGDRVSITCKASQDVDTAVAWYQQKVGHSPKLLIYWAVTRHTGVPDRFTGSGSGTDFTLTISNVQSEDLADYFCQQYSSYPYTFGGGTKLEIKR	–
–	–	–	–	–	–	binds	ヒト化抗体A (H鎖 pFU-AH2, L鎖 AL−4F1) (antibody, V domains shown, also called AL-L4F1 with AH2) VH: QVQLQQPGAELVQPGTSVRLSCKASGYTFTDYNMDWVKQRPGQGLEWIGDINSHSGGIIYNQKFKDKATLTVDKSSSTAYMQLSSLTSEDSAVYYCTRTYYVYGHFFDYWGQGTLVTVSA VL: DIQMTQSPSSLSASVGDRVTITCNVSSSVTSMYWYQQKQGKSPQLLVYLTSNLASGVPSRFSGSGSGTQFSLKINNLQPEDFGSYYCQQWSTNPLTFGQGTKLDLKR	–
–	–	–	–	–	–	binds	ヒト化抗体A (H鎖 pFU-AH2, L鎖 AL−14A10) (antibody, V domains shown, also called AL-L14A10 with AH2) VH: QVQLQQPGAELVQPGTSVRLSCKASGYTFTDYNMDWVKQRPGQGLEWIGDINSHSGGIIYNQKFKDKATLTVDKSSSTAYMQLSSLTSEDSAVYYCTRTYYVYGHFFDYWGQGTLVTVSA VL: DIQMTQSPSTLSASIGDRVTITCNVSSSVTSMYWYQQKPGKAPKLLIYLTSNLASGVPSRFSGSGSGTDFTLTISSLQPEDFATYYCQQWSTNPLTFGQGTKLEIKR	–
–	–	–	–	–	–	–	ヒト化抗体AH2−L13H10 (antibody, V domains shown, also called AH2−13H10; AH2 with AL-13H10 (AL-L13H10)) VH: QVQLQQPGAELVQPGTSVRLSCKASGYTFTDYNMDWVKQRPGQGLEWIGDINSHSGGIIYNQKFKDKATLTVDKSSSTAYMQLSSLTSEDSAVYYCTRTYYVYGHFFDYWGQGTLVTVSA VL: EIVLTQSPDFQSVTPKEKVTITCNVSSSVTSMYWYQQKPGKAPKLLVYLTSNLASGVPSRFSGSGSGTDFTLTINSLEAEDAATYYCQQWSTNPLTFGQGTKLEIKR	Kd [8]: 2.27 nM; koff [8]: 0.000203 s⁻¹; kon [8]: 89300 M⁻¹ s⁻¹
–	–	–	–	–	–	binds	ヒト化抗体A (H鎖 pFU-AH2, L鎖 AL−6E6) (antibody, V domains shown, also called AL-L6E6 with AH2) VH: QVQLQQPGAELVQPGTSVRLSCKASGYTFTDYNMDWVKQRPGQGLEWIGDINSHSGGIIYNQKFKDKATLTVDKSSSTAYMQLSSLTSEDSAVYYCTRTYYVYGHFFDYWGQGTLVTVSA VL: ELVLTQSPGTLSLSAGERATLSCNVSSSVTSMYWYQQKPGKAPKLLIYLTSNLASGVPSRFSGSGSGTDYTFTISSLQPEDIATYYCQQWSTNPLTFGQGTKVEIKR	–
